Test results taken from article PMC7954794 (2021).

B1: S. cerevisiae Abp1 (full length; SH3 domain 535-592 mutated) / Hua2 (parent complex)
chain 1: MALEPIDYTTHSREIDAEYLKIVRGSDPDTTWLIISPNAKKEYEPESTGSSFHDFLQLFDETKVQYGLARVSPPGSDVEKIIIIGWCPDSAPLKTRASFAANFAAVANNLFKGYHVQVTARDEDDLDENELLMKISNAAGARYSIQTSSKQQGKASTPPVKKSFTPSKSPAPVSKKEPVKTPSPAPAAKISSRVNDNNDDDDWNEPELKERDFDQAPLKPNQSSYKPIGKIDLQKVIAEEKAKEDPRLVQKPTAAGSKIDPSSDIANLKNESKLKRDSEFNSFLGTTKPPSMTESSLKNDDDKVIKGFRNEKSPAQLWAERKAKQNSGNAETKAEAPKPEVPEDEPEGEPDVKDLKSKFEGLAASEKEEEEMENKFAPPPKKSEPTIISPKPFSKPQEPVKAEEAEQPKTDYKKIGNPLPGMHIEADNEEEPEENDDDWDDDEDEAAQPPLPSRNVASGAPVQKEEPEQEEIAPSLPSRNSIPAPKQEEAPEQAPEEEIEEEAEEAAPQLPSRSSAAPPPPPRRATPEKKPKENPWATAEYDYDAAEDNELTFVENDKIINIEFVDDDWWLGELEKDGSKGLFPSNYVSLGN
chain 2: MQQTKFGKMYLDHDSVVEYSEDEIVEADRITLGYKKRLSMIENQMRHLLEDFSLDVQQIEPILADLQKYYDAFLQLLQKRNKSLQCKRSTHQPVPSPMNSQTSTNAKVNLSGKLMKFQLNSVQKFDEENILRILQNKIEFEHYFQIDKGKKQKVLLLAVYQCLNGPTRLHKVLNIEGIIHNNSIRTILGKQVSSSKWTVFLYDVKLVLLAHRQDVPNLETSKMIVRYGDLFPCALYFKDHTAY

Variants of: B1
Assay: DHFR protein-fragment complementation in yeast (Abp1-DHFR F[1,2] x partner-DHFR F[3]), deep mutational scanning, second methotrexate selection vs reference; S. cerevisiae, DHFR-PCA selection in liquid with methotrexate at 30 C, two 72 h selections (the score uses the second); reference = the pre-selection culture

Going from chain 1 MALEPIDYTTHSREIDAEYLKIVRGSDPDTTWLIISPNAKKEYEPESTGSSFHDFLQLFDETKVQYGLARVSPPGSDVEKIIIIGWCPDSAPLKTRASFAANFAAVANNLFKGYHVQVTARDEDDLDENELLMKISNAAGARYSIQTSSKQQGKASTPPVKKSFTPSKSPAPVSKKEPVKTPSPAPAAKISSRVNDNNDDDDWNEPELKERDFDQAPLKPNQSSYKPIGKIDLQKVIAEEKAKEDPRLVQKPTAAGSKIDPSSDIANLKNESKLKRDSEFNSFLGTTKPPSMTESSLKNDDDKVIKGFRNEKSPAQLWAERKAKQNSGNAETKAEAPKPEVPEDEPEGEPDVKDLKSKFEGLAASEKEEEEMENKFAPPPKKSEPTIISPKPFSKPQEPVKAEEAEQPKTDYKKIGNPLPGMHIEADNEEEPEENDDDWDDDEDEAAQPPLPSRNVASGAPVQKEEPEQEEIAPSLPSRNSIPAPKQEEAPEQAPEEEIEEEAEEAAPQLPSRSSAAPPPPPRRATPEKKPKENPWATAEYDYDAAEDNELTFVENDKIINIEFVDDDWWLGELEKDGSKGLFPSSYVSLGN [chain 1 N586S] to chain 1 MALEPIDYTTHSREIDAEYLKIVRGSDPDTTWLIISPNAKKEYEPESTGSSFHDFLQLFDETKVQYGLARVSPPGSDVEKIIIIGWCPDSAPLKTRASFAANFAAVANNLFKGYHVQVTARDEDDLDENELLMKISNAAGARYSIQTSSKQQGKASTPPVKKSFTPSKSPAPVSKKEPVKTPSPAPAAKISSRVNDNNDDDDWNEPELKERDFDQAPLKPNQSSYKPIGKIDLQKVIAEEKAKEDPRLVQKPTAAGSKIDPSSDIANLKNESKLKRDSEFNSFLGTTKPPSMTESSLKNDDDKVIKGFRNEKSPAQLWAERKAKQNSGNAETKAEAPKPEVPEDEPEGEPDVKDLKSKFEGLAASEKEEEEMENKFAPPPKKSEPTIISPKPFSKPQEPVKAEEAEQPKTDYKKIGNPLPGMHIEADNEEEPEENDDDWDDDEDEAAQPPLPSRNVASGAPVQKEEPEQEEIAPSLPSRNSIPAPKQEEAPEQAPEEEIEEEAEEAAPQLPSRSSAAPPPPPRRATPEKKPKENPWATAEYDYDAAEDNELTFVENDKIINIEFVDDDWWLGELEKDGSKGLFPSVYVSLGN [chain 1 N586V], the screen value falls from 2 DMS score: mean over two replicates of log2(f_test/f_ref + 0.5)/ln 2, minus the synonymous-codon median (not a log2 … to 1.04 DMS score: mean over two replicates of log2(f_test/f_ref + 0.5)/ln 2, minus the synonymous-codon median (not a log2 ….

Going from chain 1 MALEPIDYTTHSREIDAEYLKIVRGSDPDTTWLIISPNAKKEYEPESTGSSFHDFLQLFDETKVQYGLARVSPPGSDVEKIIIIGWCPDSAPLKTRASFAANFAAVANNLFKGYHVQVTARDEDDLDENELLMKISNAAGARYSIQTSSKQQGKASTPPVKKSFTPSKSPAPVSKKEPVKTPSPAPAAKISSRVNDNNDDDDWNEPELKERDFDQAPLKPNQSSYKPIGKIDLQKVIAEEKAKEDPRLVQKPTAAGSKIDPSSDIANLKNESKLKRDSEFNSFLGTTKPPSMTESSLKNDDDKVIKGFRNEKSPAQLWAERKAKQNSGNAETKAEAPKPEVPEDEPEGEPDVKDLKSKFEGLAASEKEEEEMENKFAPPPKKSEPTIISPKPFSKPQEPVKAEEAEQPKTDYKKIGNPLPGMHIEADNEEEPEENDDDWDDDEDEAAQPPLPSRNVASGAPVQKEEPEQEEIAPSLPSRNSIPAPKQEEAPEQAPEEEIEEEAEEAAPQLPSRSSAAPPPPPRRATPEKKPKENPWATAEYDYDAAEDNELTFVENDKIINIEFVDDDWWLGELEKDGSKGLFPPNYVSLGN [chain 1 S585P] to chain 1 MALEPIDYTTHSREIDAEYLKIVRGSDPDTTWLIISPNAKKEYEPESTGSSFHDFLQLFDETKVQYGLARVSPPGSDVEKIIIIGWCPDSAPLKTRASFAANFAAVANNLFKGYHVQVTARDEDDLDENELLMKISNAAGARYSIQTSSKQQGKASTPPVKKSFTPSKSPAPVSKKEPVKTPSPAPAAKISSRVNDNNDDDDWNEPELKERDFDQAPLKPNQSSYKPIGKIDLQKVIAEEKAKEDPRLVQKPTAAGSKIDPSSDIANLKNESKLKRDSEFNSFLGTTKPPSMTESSLKNDDDKVIKGFRNEKSPAQLWAERKAKQNSGNAETKAEAPKPEVPEDEPEGEPDVKDLKSKFEGLAASEKEEEEMENKFAPPPKKSEPTIISPKPFSKPQEPVKAEEAEQPKTDYKKIGNPLPGMHIEADNEEEPEENDDDWDDDEDEAAQPPLPSRNVASGAPVQKEEPEQEEIAPSLPSRNSIPAPKQEEAPEQAPEEEIEEEAEEAAPQLPSRSSAAPPPPPRRATPEKKPKENPWATAEYNYDAAEDNELTFVENDKIINIEFVDDDWWLGELEKDGSKGLFPSNYVSLGN [chain 1 D542N], the screen value rises from -2.72 DMS score: mean over two replicates of log2(f_test/f_ref + 0.5)/ln 2, minus the synonymous-codon median (not a log2 … to 0.0633 DMS score: mean over two replicates of log2(f_test/f_ref + 0.5)/ln 2, minus the synonymous-codon median (not a log2 ….

chain 1 MALEPIDYTTHSREIDAEYLKIVRGSDPDTTWLIISPNAKKEYEPESTGSSFHDFLQLFDETKVQYGLARVSPPGSDVEKIIIIGWCPDSAPLKTRASFAANFAAVANNLFKGYHVQVTARDEDDLDENELLMKISNAAGARYSIQTSSKQQGKASTPPVKKSFTPSKSPAPVSKKEPVKTPSPAPAAKISSRVNDNNDDDDWNEPELKERDFDQAPLKPNQSSYKPIGKIDLQKVIAEEKAKEDPRLVQKPTAAGSKIDPSSDIANLKNESKLKRDSEFNSFLGTTKPPSMTESSLKNDDDKVIKGFRNEKSPAQLWAERKAKQNSGNAETKAEAPKPEVPEDEPEGEPDVKDLKSKFEGLAASEKEEEEMENKFAPPPKKSEPTIISPKPFSKPQEPVKAEEAEQPKTDYKKIGNPLPGMHIEADNEEEPEENDDDWDDDEDEAAQPPLPSRNVASGAPVQKEEPEQEEIAPSLPSRNSIPAPKQEEAPEQAPEEEIEEEAEEAAPQLPSRSSAAPPPPPRRATPEKKPKENPWATAEYDYDAAEDNELTFVENDKIINIEFVDDDWWLGTLEKDGSKGLFPSNYVSLGN [chain 1 E573T] was tested, and the screen value was 0.75 DMS score: mean over two replicates of log2(f_test/f_ref + 0.5)/ln 2, minus the synonymous-codon median (not a log2 ….
